Laboratory results: US20210355227A1 (Regeneron, published 2021)

Legend:
[1] = molecular target: full-length human GLP1R on HEK293/CRE-luc/GLP1R cells (human, UniProt P43220 24-463); test: cell-based or functional assay
[2] = molecular target: T1, N-terminal region of human GLP1R-MMH (human); test: SPR Biacore 4000, mAb captured by anti-human Fc, 25 C
T1 construct: also called hGLP1R-MMH
T1 chain: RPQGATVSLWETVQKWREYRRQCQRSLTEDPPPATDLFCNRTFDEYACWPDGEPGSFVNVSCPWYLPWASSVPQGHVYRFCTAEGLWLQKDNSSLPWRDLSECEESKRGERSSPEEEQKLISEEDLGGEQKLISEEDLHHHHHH
Method: (§1) The equilibrium dissociation constant (KD) for GLP1R binding to selected GLP1R monoclonal antibodies (mAbs) was determined using a real-time surface plasmon resonance biosensor using a Biacore 4000 instrument. All binding studies were performed in 10 mM HEPES, 150 mM NaCl, 3 mM EDTA, and 0.05% v/v Surfactant Tween-20, pH 7.4 (HBS-ET) running buffer at 25° C. and 37° C. The Biacore CM5 sensor chip surface was first derivatized by amine coupling with human Fc specific mouse mAb to capture different GLP1R mAbs. […] At the end of each cycle, the GLP1R mAb capture surface was regenerated using a 12 sec injection of 20 mM phosphoric acid.
(§2) The association rate (kₐ) and dissociation rate (kd) were determined by fitting the real-time binding sensorgrams to a 1:1 binding model with mass transport limitation using Scrubber 2.0 c curve-fitting software.

[3] = molecular target: T1, N-terminal region of human GLP1R-MMH; test: SPR Biacore 4000, mAb captured by anti-human Fc, 37 C
Method: as §1, §2

[4] = molecular target: T2, human GLP1R expressed with mouse IgG2a Fc (human); test: SPR Biacore 4000, mAb captured by anti-human Fc, 25 C
T2 construct: It is probably the N-terminal region, as for hGLP1R-MMH, but the sentence is ambiguous; also called hGLP1R-mFc
T2 chain: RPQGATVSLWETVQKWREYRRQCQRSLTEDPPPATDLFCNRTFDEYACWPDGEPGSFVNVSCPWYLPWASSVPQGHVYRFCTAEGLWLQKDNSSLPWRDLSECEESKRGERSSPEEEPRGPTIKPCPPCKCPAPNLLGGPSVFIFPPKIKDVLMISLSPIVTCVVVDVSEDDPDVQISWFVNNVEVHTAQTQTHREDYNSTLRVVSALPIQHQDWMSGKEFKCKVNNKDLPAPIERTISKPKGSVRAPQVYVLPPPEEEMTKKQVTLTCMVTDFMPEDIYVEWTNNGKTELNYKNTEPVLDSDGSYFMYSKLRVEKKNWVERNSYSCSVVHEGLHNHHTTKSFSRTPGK
Method: as §1
(§3) The association rate (kₐ) and dissociation rate (kd) were determined by fitting the real-time binding sensorgrams to a 1:1 binding model with mass transport limitation using Scrubber 2.0 c curve-fitting software. Binding dissociation equilibrium constant (KD) and dissociative half-life (t½) were calculated from the kinetic rates as:

[5] = molecular target: T2, human GLP1R expressed with mouse IgG2a …; test: SPR Biacore 4000, mAb captured by anti-human Fc, 37 C
Method: as §1, §3

[6] = molecular target: T3, macaca fascicularis GLP1R-MMH (macaca fascicularis); test: SPR Biacore 4000, mAb captured by anti-human Fc, 25 C
T3 construct: also called mfGLP1R-MMH; monomeric cynomolgus GLP1R
T3 chain: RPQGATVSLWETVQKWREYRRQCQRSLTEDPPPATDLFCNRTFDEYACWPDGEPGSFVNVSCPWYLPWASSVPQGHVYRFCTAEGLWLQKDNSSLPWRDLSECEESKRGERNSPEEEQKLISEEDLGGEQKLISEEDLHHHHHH
Method: as §1, §2

[7] = molecular target: T3, macaca fascicularis GLP1R-MMH; test: SPR Biacore 4000, mAb captured by anti-human Fc, 37 C
Method: as §1, §2

[8] = molecular target: T4, in-line fusion protein of human desA-GLP1 and GLP1R-MMH (human); test: SPR Biacore 4000, mAb captured by anti-human Fc, 25 C
T4 construct: also called hdesA-GLP1_GLP1R-MMH
T4 chain: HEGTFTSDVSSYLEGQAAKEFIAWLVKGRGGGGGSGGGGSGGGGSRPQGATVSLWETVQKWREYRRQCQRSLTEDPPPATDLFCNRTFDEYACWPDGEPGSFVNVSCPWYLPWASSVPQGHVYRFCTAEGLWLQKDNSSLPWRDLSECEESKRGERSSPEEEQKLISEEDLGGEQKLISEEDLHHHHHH
Method: as §1, §3

[9] = molecular target: T4, in-line fusion protein of human …; test: SPR Biacore 4000, mAb captured by anti-human Fc, 37 C
Method: as §1, §2

[10] = molecular target: T5, mouse GLP1R-MMH (mouse); test: SPR Biacore 4000, mAb captured by anti-human Fc, 25 C
T5 construct: It was injected at 100 nM only; also called mGLP1R-MMH; monomeric mouse GLP1R
T5 chain: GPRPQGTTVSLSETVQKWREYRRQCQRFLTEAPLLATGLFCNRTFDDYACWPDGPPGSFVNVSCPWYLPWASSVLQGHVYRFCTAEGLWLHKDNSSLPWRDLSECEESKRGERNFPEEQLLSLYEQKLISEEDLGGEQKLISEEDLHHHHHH
Method: as §1, §3

[11] = molecular target: T5, mouse GLP1R-MMH; test: SPR Biacore 4000, mAb captured by anti-human Fc, 37 C
Method: as §1, §3

B1: mAb36986 (antibody, human IgG4 S228P, kappa, V domains shown)
VH: QVQLVQSGTEVKKPGASVKVSCMASGYTFTTYGISWVRQAPGQGLEWMGWISAYNGNTKYAQRLQGRVTMTTDTSTTTAYMGLRGLRSDDTAVYFCARVTLSGRFDYWGQGTLVTVSP
VL: DIQMTQSPSSLSASVGDRVTITCQASQDISDYLNWYQQKPGKAPKLLIYDASNLETGVPSRFSGSGSGTDFTFTIRSLQPEDIATYYCQQYDNLPYTFGQGTKLEIKR
notes: In SPR the mAbs were captured by a human-Fc-specific antibody
% Inhibition of human GLP1R activation by 40 pM GLP1 (CRE-luciferase reporter) [1]: 100% | IC50 [M] of inhibition of human GLP1R activation by 40 pM GLP1 (CRE-luciferase reporter) [1]: 1.69e-09 M | 100 nM hGLP1R-MMH Bound (RU) [2]: 115 RU | Kd [2]: 0.139 nM | koff [2]: 9.97e-05 s⁻¹ | kon [2]: 717000 M⁻¹ s⁻¹ | t½ [2]: 116 min | 100 nM hGLP1R-MMH Bound (RU) [3]: 135 RU | Kd [3]: 0.594 nM | koff [3]: 0.000544 s⁻¹ | kon [3]: 915000 M⁻¹ s⁻¹ | t½ [3]: 21 min | 100 nM hGLP1R-mFc Bound (RU) [4]: 187 RU | Kd [4]: 0.735 nM | koff [4]: 7.64e-05 s⁻¹ | kon [4]: 104000 M⁻¹ s⁻¹ | t½ [4]: 151 min | 100 nM hGLP1R-mFc Bound (RU) [5]: 246 RU | Kd [5]: 3.35 nM | koff [5]: 0.000432 s⁻¹ | kon [5]: 129000 M⁻¹ s⁻¹ | t½ [5]: 27 min | 100 nM mfGLP1R-MMH Bound (RU) [6]: 103 RU | Kd [6]: 0.424 nM | koff [6]: 0.000102 s⁻¹ | kon [6]: 240000 M⁻¹ s⁻¹ | t½ [6]: 113 min | 100 nM mfGLP1R-MMH Bound (RU) [7]: 128 RU | Kd [7]: 1.59 nM | koff [7]: 0.000501 s⁻¹ | kon [7]: 315000 M⁻¹ s⁻¹ | t½ [7]: 23 min | 100 nM hdesA-GLP1_GLP1R-MMH Bound (RU) [8]: 13 RU | Kd [8]: 3.56 nM | koff [8]: 0.000108 s⁻¹ | kon [8]: 30400 M⁻¹ s⁻¹ | t½ [8]: 107 min | 100 nM hdesA-GLP1_GLP1R-MMH Bound (RU) [9]: 28 RU | Kd [9]: 60.4 nM | koff [9]: 0.000987 s⁻¹ | kon [9]: 16300 M⁻¹ s⁻¹ | t½ [9]: 12 min | 100 nM mGLP1R-MMH Bound (RU) [10]: 88 RU | Kd [10]: 20.1 nM | koff [10]: 0.00902 s⁻¹ | kon [10]: 449000 M⁻¹ s⁻¹ | t½ [10]: 1.3 min | 100 nM mGLP1R-MMH Bound (RU) [11]: 70 RU | Kd [11]: 74.7 nM | koff [11]: 0.0485 s⁻¹ | kon [11]: 649000 M⁻¹ s⁻¹ | t½ [11]: 0.24 min

B2: mAb37639 (antibody, human IgG4 S228P, kappa, V domains shown)
VH: EVQLLESGGGVVQPGGSLRLSCVASGFTFSSYAMSWVRQAPGKGLEWVSSISGSGGSTDNADSVKGRFTISRDNSKNTLYLQMNSLRAEDTAVYYCAKDRITIFGVVLNGAFDIWGQGTMVTVSS
VL: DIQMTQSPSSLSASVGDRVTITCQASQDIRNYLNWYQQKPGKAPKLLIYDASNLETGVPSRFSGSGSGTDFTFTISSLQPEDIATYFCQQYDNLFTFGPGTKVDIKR
notes: as for B1
% Inhibition of human GLP1R activation by 40 pM GLP1 (CRE-luciferase reporter) [1]: 100% | IC50 [M] of inhibition of human GLP1R activation by 40 pM GLP1 (CRE-luciferase reporter) [1]: 6.55e-09 M | 100 nM hGLP1R-MMH Bound (RU) [2]: 103 RU | Kd [2]: 0.474 nM | koff [2]: 0.000186 s⁻¹ | kon [2]: 393000 M⁻¹ s⁻¹ | t½ [2]: 62 min | 100 nM hGLP1R-MMH Bound (RU) [3]: 123 RU | Kd [3]: 0.632 nM | koff [3]: 0.000422 s⁻¹ | kon [3]: 668000 M⁻¹ s⁻¹ | t½ [3]: 27 min | 100 nM hGLP1R-mFc Bound (RU) [4]: 122 RU | Kd [4]: 2.37 nM | koff [4]: 0.000156 s⁻¹ | kon [4]: 65900 M⁻¹ s⁻¹ | t½ [4]: 74 min | 100 nM hGLP1R-mFc Bound (RU) [5]: 185 RU | Kd [5]: 3.52 nM | koff [5]: 0.000354 s⁻¹ | kon [5]: 101000 M⁻¹ s⁻¹ | t½ [5]: 33 min | 100 nM mfGLP1R-MMH Bound (RU) [6]: 83 RU | Kd [6]: 1.42 nM | koff [6]: 0.000195 s⁻¹ | kon [6]: 137000 M⁻¹ s⁻¹ | t½ [6]: 59 min | 100 nM mfGLP1R-MMH Bound (RU) [7]: 110 RU | Kd [7]: 1.94 nM | koff [7]: 0.000418 s⁻¹ | kon [7]: 215000 M⁻¹ s⁻¹ | t½ [7]: 28 min | 100 nM hdesA-GLP1_GLP1R-MMH Bound (RU) [8]: 8 RU | Kd [8]: 16 nM | koff [8]: 0.00019 s⁻¹ | kon [8]: 11900 M⁻¹ s⁻¹ | t½ [8]: 61 min | 100 nM hdesA-GLP1_GLP1R-MMH Bound (RU) [9]: 21 RU | Kd [9]: 74.2 nM | koff [9]: 0.00127 s⁻¹ | kon [9]: 17100 M⁻¹ s⁻¹ | t½ [9]: 9 min | 100 nM mGLP1R-MMH Bound (RU) [10]: 85 RU | Kd [10]: 16.9 nM | koff [10]: 0.00454 s⁻¹ | kon [10]: 269000 M⁻¹ s⁻¹ | t½ [10]: 2.5 min | 100 nM mGLP1R-MMH Bound (RU) [11]: 97 RU | Kd [11]: 22.1 nM | koff [11]: 0.00959 s⁻¹ | kon [11]: 435000 M⁻¹ s⁻¹ | t½ [11]: 1.2 min
